This passage reports stoichiometry N results from article PMC9832874.

In the assay the target is T1, Human C-reactive protein, pentameric (pCRP) (human), P02741.
T1 chain: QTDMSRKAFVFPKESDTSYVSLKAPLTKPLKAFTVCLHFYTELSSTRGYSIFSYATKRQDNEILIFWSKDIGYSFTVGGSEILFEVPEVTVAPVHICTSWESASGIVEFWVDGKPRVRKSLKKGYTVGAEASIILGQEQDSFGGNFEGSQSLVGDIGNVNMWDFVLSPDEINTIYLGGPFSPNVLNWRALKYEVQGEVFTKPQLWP
The assay is described as follows: crystal structure; pCRP at 8 mg/ml in 20 mM Tris, 140 mM NaCl, 2 mM CaCl2, co-crystallised with C10M (1:3 molar ratio pCRP:C10M); hanging drop at 20°C; well buffer 100 mM Tris pH 9, 10% PEG 4000, 50 mM LiCl, 200 mM MgCl2; oligomer seen: pentamer. Conditions: remark: other sources report otherwise.

B1: Human C-reactive protein, pentameric (pCRP), P02741 19-224 (natural protein)
chain: T1 chain
In the case of B1, the stoichiometry N – broadly, the number of molecules, sites or subunits per partner or assembly – turned out to be 5.
